Data published in the DeepSol protein solubility set.

Test: soluble on expression in E. coli; label from the status in PepcDB or PDB records

Sequence | soluble on expression in E. coli
MSRNDLFKQPLDTINVGIDFIHEDMKKQGIPSHQVNWAPPANGDPELLKLLDQLKNPTLYEKIQQANEEAVTRIIQSKPILVGFDKAINVMPDMTETTILHAGPPITYENMCGPMKGAVQGALVFEGLAKDLADADRVARSGAITFSPCHEHDAVGSMAGVTSPNMYVHIIKNETYGNTAFTNLSEQLAKVLRFGANDQSVVDRLIWMRDVLGPLLHDAMTFCPEGIDLRLMLSQALHMGDECHNRNVAGSTLLVQALTPYMVQTDFSREQLKEVFEFLGSSDYFSGPTWMGAAKCALDAGHNVENSTIVTTMCRNGVEFGIRVSGIGGNHWFTGPAQRVIGPMFAGYTQEDAGLDMGDSAITETYGVGGFAMAAAPAIVPLVGGTVAEALNYSKEMLEITTKENPNVTIPVLDFMGIPTGIDVLKVLETGMLPVINTAIAHKEPGIGMIGAGLTNPPANVFNEALKALVATIN | soluble
MGSDKIHHHHHHMGKYQDSKKVVRNYFEALENATGDEVENVLKQHMKSDYNWKGVYPFREQEGTENVADVFWKPLKKSLSNMQRRQDIFIAGTNEIDNSEWVMSMGHFMGLFDNDWLGIKHTRKMISLRYAEFNCVQDGKIAKTGLFVDIIGFMIQAGVNPLPPQTGSYFVYPGPIDHNGLLFEDADEVEGVKTLALVNKMVDDLSELNESGAMGCPPEILEKSWAKDMIWYGPGGIGASYTIPRYQEQHQLPFRNNLKGKTFNGHVCRFAEGNFACFFGWPNLTNVPCGGFLGLPGGEVKADMQVVDVYYRKGDKLQENWVLIDIPYWLKQQGLDILERTKSIFNA | not soluble
MSSAYQLVIFDWEGTIADTLGVILHTVATEAKMLGFGDIDPYQARKYVDLGLVQAVKKTLPNLTAGQQEDLLQAVQSAMISRPTEVRLIPGVLEFIQQLHQAKVDLAIATNKGHNSLIRALQATELDQLFKVTRSAGQVPAKPCPQMLEEIMEEFGRDPSSTLMIGDSTTDMEMAKRINVNAIGMDFYHQQEDALKAAGALAVFDDYKLLSAYLMLPEA | not soluble
MNYNPEEQFRCTIIRGKAKNMLDNLLPAYANIIDDICPCDKASFVKDFNNRLIEILGEETTKKTLDNHRTEIAGKLFGMFYEDDEVIFPSGRTNKYIEDSDQPAFFKDICFKFQFPNGMDKLDKVIEKVGAKIQIRQFPYILQVLLTADNNNIQLSKDDIAYYVLNSLQVLQGKIKPIEVIEKIIEDRSNDITKKVRHPGKETSYSMQHIREQLNYLELANLIRIDGNLVKLNYREAENINYIAQFWGNKPEFNAYKYDFTSEDDKKSFFKDWQQYYSNVNSHKS | soluble
MGSDKIHHHHHHMNEAAKQLYITQPSLSNAVRNLETEMGIQIFIRNPKGITLTKDGMEFLSYARQILEQTALLEERYKGDNTSRELFSVSSQHYAFVVNAFVALFNGTDMTQYELFLRETRTWEIIDDVKNFRSEIGVLFLNSYNRDVLTKLFDDNSLIATTLFTTTPHIFVSKSNPLANRKKLNMKDLEDYPYLSYDQGLHNSFYFSEEMMSQIPHPKSIVVSDRATLFNLMIGLDGYTVATGILNSKLNGDEIVAIPLDVDDVIDIVYIRHDKANLSKMGQKFIDYLLEEVSFNHKNKQS | not soluble
MAHHHHHHMPVPVLLDNYAYFILSCKTKRCAVVDPADPTLVLNMLEVVRNLTQIDFMITDILTTHKHWDHAGGNMEMRALSQCSSERCRALLSPELNIYGSEVDRPHACNKLIKGSDELVVAGGGAKVVVLSTPGHTGGSVMFLVGDALPKEGEPQRLALFTGDCVFCGGCGALFEATSVDETLETVDIFNNNRTWVHPATGDIIHTDDVLIYVGHEYTERSLDMILSVQRTANQTGEQSAIATSNYCDTVAQARNGARRLRSCVVADDVYMKVTSMETKAPLHLRACTVPSTVTIEKKVNALLSLKRCVLEEFQGKPYASMAVQRAIYTSTKRNDTG | not soluble
MMKIIAFVGMPASGKSEASRIAAEMGIPVIIMGDVIRKEVLKRGLEPNDSNTGMVATDLRKHEGMGAVARRCISQIRETGSELVVVDGVRGIAEVECFRKEFGKGFILISIYAPIEVRFSRVQKRGRSDDMNSIEGLRHRDERELSWGMGEAIDASNVEIENNFTLETFRKDVRDVLSNYLEADLEK | not soluble
MLVEGSELQSGAQQPRTEAPQHGELQYLRQVEHIMRCGFKKEDRTGTGTLSVFGMQARYSLRDEFPLLTTKRVFWKGVLEELLWFIKGSTNAKELSSKGVRIWDANGSRDFLDSLGFSARQEGDLGPVYGFQWRHFGADYKDMDSDYSGQGVDQLQKVIDTIKTNPDDRRIIMCAWNPKDLPLMALPPCHALCQFYVVNGELSCQLYQRSGDMGLGVPFNIASYALLTYMIAHITGLQPGDFVHTLGDAHIYLNHIEPLKIQLQREPRPFPKLRILRKVETIDDFKVEDFQIEGYNPHPTIKMEMAV | soluble
MGSDKIHHHHHHMSDVYIFCLSMGSPTLNTRVLTNSMELKVGCCGFPVSMKRYFETFDVVEVQKTFYKPPEVKTAEKWRKSAPEDFEFTIKAWQVITHPPSSPTYKKAGIKFENCGFFRPTEVVFMAWEETKKIAKALKAEIIVFQTPKSFRDTAENMENMRAFFSSIDGSFTFCFEPRGWSEESVRAICEELDLVHVVDPFVSKQLYGEICYYRLHGFDYKHKYTDDELEKLLGIVDRDGYVMFNNVHMFDDALRFKKLVEREAKSK | not soluble
MSNDRPLIFVDLDDTLFQTARKTPADIEKHVATLDISGNANGYMTNVQKSFAHWLLAHADVVPVTARSVEAYSRVKLPFTAGAICSHGGVMLDVMGRLDPDWNEQMKQTLASYQSRLHELSAATLAIGQEMGFSLRGWVVEEAQLFHYVVTKHNESDDSILTKVLAEMQARGLLDGMHIHGNGNNLAFLPEGLAKRYAVQEWLRRDLAINGERPVLGFGDSITDLGFMDECHWWATPARSQLAKMFVGAAHE | not soluble
MGSDKIHHHHHHMVTLEPENKVRKILITDCADAKGLIAKITGVCFAHQLNIIKNTEFVDRIQGRFFMRTVLEGVFDDASLLKALSEVLPAQNHTKLVAADKKRIVVMVTKEAHCLGDLLMKAYYGGLDVDIAAVVGNYDSLRNLTEKFDIPFHHVCHQGLDRLEHEQAILKIVNGYQPDYVVLAKYMRVLTPEFVCAYPDRIINIHHSFLPAFIGASPYKQAWERGVKIIGATAHFVNDCLDEGPIIKQDVISVDHTFSAEEMAHNGRDVEKSVLSKALQLVLNEQVIVYGNKTVVF | not soluble
MADSNSTVEQYRSLKRKMIEKKDLMRNNRTALRACILFNCLLGTSIRDAYNQFCRAVGSDVMEYREYEFWFYQFKRGDADFSDAISWNPNTIKLDELPIEVINTISSFSMPMERLTLRKVSKNLRTLIDSEPFCFQRIIVRIGHRTSYLQLDGYPGIEYIHCGADCNVLYGKRDKYVKNKNHVEYALTEAIQLMRNSNNHSKEFHVRAERSNDQELSMVLRKFFDSVEIELYAKKIVVSGFSFADTSSVLCHFKAGFLEEIQVLPGSGGPWTNVLVEMEQYKKAKVLKICTEFPVLLDIEDLLHFRRFEIAIKSDFTERMARKIRDVLTNSEHFEYAHIITQDLHHRTVIKFFNRNAENVFWNYGSMNYNNKKRLFHIEYNHRQFVIKKLNM | not soluble
MAHHHHHHMVMSQRIAYVTGGMGGIGTSICQRLHKDGFRVVAGCGPNSPRRVKWLEDQKALGFDFYASEGNVGDWDSTKQAFDKVKAEVGEIDVLVNNAGITRDVVFRKMTREDWQAVIDTNLTSLFNVTKQVIDGMVERGWGRIINISSVNGQKGQFGQTNYSTAKAGIHGFTMSLAQEVATKGVTVNTVSPGYIGTDMVKAIRPDVLEKIVATIPVRRLGSPDEIGSIVAWLASEESGFSTGADFSLNGGLHMG | soluble
MKRSIAPLLVCPACLPKERPLELTATAEADGDITAGHLSCKGCRRRFPIRDGIAVLLPDPDTGPSGGQWKYEEQGTLATYLWSHFADLAGDPEAGDAYASWASALAGNAETSLDAGCAVGRLTFELGQRSGLAVGFDLSLTFIRAARQLARERQIRFSLPREGNLRDEFRLTLPDCWRTDEVEFVVADALAIPFARETFDRTASLNLIDRVSYPLAHLYEMNRVARLSGASFLLSDPFSWSTANAPEEKWLGGTESGPYSGRGMDNVKAILGGKEAIIAPPWTVAREGSVWWKIRSHRNHFELIRSEFLVAERLEHHHHHH | not soluble
MQQSTLVRLKEKLTLKNPIMVVGLPGVGLVGKLVAEHLVDELAAERIMEVYSPHFPPQVLVNKDCTVRPVSNTIYLGKANETDVLFLVGDHQSTTAQGHYELCSLYLDIAEELKVPRIYTLGGYPTGKLTYEDTVLGVANSTELIEEIKQYGVEFRESEPSGGIVGASGLLVAFSGMRGIDAACLMGMTPGYLMDPKSAQSLLKVLCNIFGIEVNTDSLKKKAEEMENILEKLKEKEEQQNLPEVKPTEEDLRYIG | soluble
MGSDKIHHHHHHMFSRRFRRLSPRDIIGGDVTLRRPSVAEALAVASASFIASFYVSGETILLAAGLALGGLAIASSLPARAGRVFIAGIRLEFMIPGRIVEGEVRTGRLLVENRTLNPMVLKIILKPEEGLEVEPERAEVHAPPLSRRSISLVVKPRFGRYKLIASIEEARSPLGLWSLQPEQPQTAVEVLATPKPEVVSEDISVLTGPGSLDRGREGSGLDYRSFREYQPGDDPRSIEWKLTGRRGAPVVREVEGAESSKPVRLVLAIRPQHYRKPLYNSPYGAAARRLYTISMMLAEEGVRHSVLLPGARGFQELEISTPRDTLELGLALAIYTPEDPPIDYAYLIEDLARRDSPVIVVSPKGTLGEIVDKDRVYVLEV | not soluble
MAHHHHHHMSQSTSLAYATLFHPSRDSATIQHSAARASAAHQQQVQQSPSITRATDGATYTAEGIAVASLSSLDTWTGFLSSQWAETVKMQLSMPSNAAPVISPSGADLISSLHSIVSRQNKVVAQPQEKLVAQRAKEEKDWEAKKQLSQSTSAEGMPGSFKNTKDEAVSSVDDNVADNAAENTQVCVLLAHLLEHARFLWARAVSQHFRVAQVRKSSSSKDTRSPKKVTADINAEAAMEEERVGLPPISLLFRCLVDGINSEEARQAIVTAGVLPASAWDSGVLGVDQLGILTVFERHVQALRTFPGIVPPLEALREYFAELHPQQLSKYYPSGALDSTLELAEAQMDAFLRFGDETEQMAALLRAGLHPSVRRLLYARALQVPLTVTDGKPMFLAQGELMTNHLRHGLARYLTCSSRQARDKVKRRFHHRYSSSKEENRVRLLQRLALDDMFISVGNSDKYFVYTDDVEVLSTAMVVDHSLPVPKMVQALKQLGRPRDLLDSYVTYLQYPETNLVQQKALPCGVAPLEGFALLLGALCNVTSDTVEQYELAAAIVAQLWSRLQGPTPELFQCCLIFESLVQQLALPAVLHATRNLQYPPLVLAMRWMLTGFADLLDAFEVLSFWDLVLSYHMREMHRRSPLSLPTGLANAAPHDTSTPCALWLLPMYAAAIFVMRAPLVEACRTAAEVDVVFATGHQLRTRSLLQGLLFG | not soluble
MPFSQIGINGIVNLKKMHVKNYRAPQVSVLNFLPPRHIVLGLENLDIGLGSEFTANAVPIVVEGSLVGQITGMTVALTTELLTDVTGKMNAVVRNCSALIGNSHIVLNPTGPMSIFVKTFEPMINDSVRQRIPEMFCSRLQNLIEKNISKLFEFITKIDLEDYFPKASNVEKDVMNM | not soluble
MGSDKIHHHHHHMMKAQFTLTPSESKRLIAKGVKALPILRKALQNHTIILAGGTTNGFLVEELLNETLAEKTRYTVGLIADGKTGESKEEQRIPPFIIAKGKALDRSLHWKDFLPQLEPGDVFIKGGNALDSTGLAAVLVSNSMAGTIGAALGPLYARGVRLVVPIGLEKLIPDVREAVEFMASAPADTALGAKTGLVPMLGATVVTEITALETLYQVTAKCIGAGGVAGSEGAVTLVIEGEAAEVESALSLIQSCKGEPPVR | not soluble
